Laboratory results as given in publication PMC6137059.

Target: TcpK (Clostridium perfringens (plasmid pCW3), UniProt Q1PLI2 1-102)
Test: fluorescence polarization; SPR: 10 mM HEPES pH 7.4, 200 mM NaCl, 3 mM EDTA, 0.05% Tween 20, 20 C; […]
Settings: protein: recombinant; tags: N-terminal His6-TEV, cleaved; chain copies: 2; label: 5' Alexa488; blunt

B1: oriTmin23 Alexa488 (dsDNA)
DNA 1: AAGGAACTTTACAGGGAACTTTA
DNA 2: TAAAGTTCCCTGTAAAGTTCCTT
Q: For B1, which Kd is on record?
A: 590 nM
